Test results reported in patent publication US20090191645A1, “COMPOUNDS AND METHODS FOR MODULATING INTEGRIN ACTIVITY” (Washington University in St. Louis, priority 2008, published 2009).
Entries after “also recorded” stand apart in the source; their conditions may differ.

Tests used:
[1] = biological target: T1, αIIbβ3 integrin (Homo sapiens, UniProt P05106+P08514); assay: LIBS antibody binding to human platelets (flow cytometry); format: cell-based; details: for LIBS binding to platelets (3 LIBS mAbs): platelets with PGE1 / kept on ice; for D3 LIBS antibody binding to platelets: 100 μM clasp peptide in the presence of RGD
T1 construct: Platelets and megakaryocytes are the only cells to express αIIbβ3 integrin; endogenous in cells; host or cells: washed human platelets from a healthy donor
Method: Preparation of Fresh Platelets—Collection of human blood was performed under an approved protocol of the Washington University School of Medicine Human Studies Committee. 30 mL of blood was drawn from a healthy donor into 3% sodium citrate, and centrifuged at 200×g for 10 min. at room temp. to yield platelet-rich plasma (PRP). The PRP was treated with 1 μg/ml prostaglandin E1 (PGE-1) and centrifuged at 500×g for 5 min. The platelet pellet was resuspended in Tyrode's solution (137 mM NaCl, 2.7 mM KCl, 2 mM CaCl2, 1 mM MgCl2, 3.3 mM NaH2PO4, 5.5 mM glucose, 20 mM HEPES, pH 7.4 with 1 mg/ml BSA and 1 μg/ml PGE-1. The platelet suspension was stored on ice for 1 to 48 hr or treated as described below.
(§1) Flow Cytometry—Binding of anti-β3 mAb AP3 and anti-LIBS mAbs LIBS1, LIBS6 and D3 was quantified using a Coulter EPICS flow cytometer. 10^6 cells were washed and resuspended in 100 μl of FACS buffer (1% BSA, 2 mM MgCl2, in PBS) and incubated on ice for 30 minutes. Cells were washed and resuspended in buffer (PBS+2 mM MgCl2 or 1 mM each CaCl2 and MgCl2) along with combinations of 0-1 mM GRGDSP (SEQ ID NO: 19) with 500 μM MnCl2, 100 μM P2483, 100 μM P2484, and 100 μM P2485 or control peptide. Cells were then incubated on ice for 30 minutes. Cells were washed and incubated in 100 μl of buffer (PBS+2 mM MgCl2) containing donkey anti-mouse IgG-FITC at a 1:100 dilution for an additional 30 min. After washing, the cells were diluted to 0.5 ml and analyzed by flow cytometry. Data was analyzed using WinMDI software.
Platelets and megakaryocytes are the only cells to express αIIbβ3 integrin, and thus platelets offer a unique system in which to test the effects of the clasp peptides on β3 integrin activation. They also provide the opportunity to compare the activation response to the clasp peptides of αIIbβ3 vs αvβ3. Several G protein coupled receptors (e.g. those for ADP, thromboxane and thrombin) on platelets can rapidly activate αIIbβ3 via inside-out signaling (2). To eliminate this route of activation platelets were incubated with PGE1, which elevates cyclic AMP levels via Gs, and in some experiments also used apyrase to block activation by leaked ADP (39). In addition, platelets were kept on ice for as long as 24 to 48 hours to ensure metabolic inactivity. While short-term exposure to cold can activate platelets, long term exposure makes platelets refractory to activation (40).

[2] = system: C32 melanoma cells; assay: C32 cell adhesion and spreading on vitronectin; format: cell-based, human; details: Vn-coated wells
Method: Cell Spreading Assay—Spreading of C32 cells on Vn was performed as described (31) in 24-well tissue culture plates coated with 0.5 μg/ml Vn and blocked with 1% BSA/PBS for 2 hrs at room temperature. C32 cells were plated in HBSS with 2 mM CaCl2 and 2 mM MgCl2 in the presence of 2 mM MnSO4, and indicated amounts of GRGDSP (SEQ ID NO: 19), P2483, P2484, or 4N1K. Cells were allowed to spread for 30 minutes at 37° C., after which the cells were fixed, stained, and photographed.
As an initial approach to testing the function of the putative clasp region of β3 integrins, synthetic peptides were used to mimic the α and β sides of the clasp. It was reasoned that αIIbβ3 is likely to be held in the off state more securely than αvβ3, and thus the αIIb clasp sequence was chosen for these experiments (Table 1). To evaluate the effects of the putative clasp peptides on αvβ3 activation in live cells, adhesion and spreading assays using C32 melanoma cells were performed. […] Not until αvβ3 is activated, e.g. via Mn^++ or CD47 stimulation, does αvβ3-dependent spreading occur (35). The assay was performed in Ca^++/Mg^++ which supports integrin activity, and we used Mn^++ activation of αvβ3 as a positive control (6). The putative clasp peptides were incubated with cells added to the Vn-coated wells and after 30 min at 37° cell attachment and spreading were assessed (FIG. 1).

[3] = biological target: T2, αvβ3 integrin (Homo sapiens, UniProt P05106+P06756); assay: LIBS antibody binding to αvβ3 on K562 cells (flow cytometry); format: cell-based; details: K562 cells expressing αvβ3; for LIBS1, LIBS6 or D3 antibody binding (fluorescence): 1 mM GRGDSP vs LIBS antibody with no RGD peptide; for LIBS1 antibody binding: 100 μM peptide, in the presence of 1 mM RGD peptide, absence of Mn++
T2 construct: Full length cDNA clones of human αv and β3 integrin subunits were provided by Dr. Scott Blystone; expressed in transfected cells; host or cells: human K562 erythroleukemia cells (ATCC CCL-243), stably expressing αvβ3
T2 sequence (P06756 31-889 limits assumed): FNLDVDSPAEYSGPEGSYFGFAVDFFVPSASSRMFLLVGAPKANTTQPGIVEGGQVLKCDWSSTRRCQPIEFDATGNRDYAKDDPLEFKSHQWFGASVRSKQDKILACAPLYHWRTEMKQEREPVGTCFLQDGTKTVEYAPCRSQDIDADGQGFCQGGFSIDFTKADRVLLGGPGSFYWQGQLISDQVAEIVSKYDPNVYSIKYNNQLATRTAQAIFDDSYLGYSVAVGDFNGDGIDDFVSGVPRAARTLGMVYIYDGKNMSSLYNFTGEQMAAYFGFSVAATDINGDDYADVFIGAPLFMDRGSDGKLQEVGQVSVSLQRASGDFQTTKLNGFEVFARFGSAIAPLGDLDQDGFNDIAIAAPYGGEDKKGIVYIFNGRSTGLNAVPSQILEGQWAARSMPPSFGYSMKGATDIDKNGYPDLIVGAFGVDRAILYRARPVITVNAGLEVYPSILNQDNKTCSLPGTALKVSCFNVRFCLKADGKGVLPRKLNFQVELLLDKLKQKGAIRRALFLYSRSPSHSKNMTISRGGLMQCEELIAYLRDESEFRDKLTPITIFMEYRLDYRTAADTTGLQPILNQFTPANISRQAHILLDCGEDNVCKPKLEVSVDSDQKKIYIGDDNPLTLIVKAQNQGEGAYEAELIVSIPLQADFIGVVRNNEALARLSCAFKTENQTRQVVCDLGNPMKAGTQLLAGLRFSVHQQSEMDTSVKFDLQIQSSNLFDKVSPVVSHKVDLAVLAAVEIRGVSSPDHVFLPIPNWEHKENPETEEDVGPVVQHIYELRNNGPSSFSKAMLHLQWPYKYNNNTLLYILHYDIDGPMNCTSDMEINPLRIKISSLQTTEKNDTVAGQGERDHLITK
T2 sequence (P06756 891-1048 limits assumed): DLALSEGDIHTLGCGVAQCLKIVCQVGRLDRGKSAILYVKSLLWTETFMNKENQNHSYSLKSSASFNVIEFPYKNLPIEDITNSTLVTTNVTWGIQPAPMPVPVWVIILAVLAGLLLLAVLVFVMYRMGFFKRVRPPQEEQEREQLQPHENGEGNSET
T2 sequence (P05106 27-788): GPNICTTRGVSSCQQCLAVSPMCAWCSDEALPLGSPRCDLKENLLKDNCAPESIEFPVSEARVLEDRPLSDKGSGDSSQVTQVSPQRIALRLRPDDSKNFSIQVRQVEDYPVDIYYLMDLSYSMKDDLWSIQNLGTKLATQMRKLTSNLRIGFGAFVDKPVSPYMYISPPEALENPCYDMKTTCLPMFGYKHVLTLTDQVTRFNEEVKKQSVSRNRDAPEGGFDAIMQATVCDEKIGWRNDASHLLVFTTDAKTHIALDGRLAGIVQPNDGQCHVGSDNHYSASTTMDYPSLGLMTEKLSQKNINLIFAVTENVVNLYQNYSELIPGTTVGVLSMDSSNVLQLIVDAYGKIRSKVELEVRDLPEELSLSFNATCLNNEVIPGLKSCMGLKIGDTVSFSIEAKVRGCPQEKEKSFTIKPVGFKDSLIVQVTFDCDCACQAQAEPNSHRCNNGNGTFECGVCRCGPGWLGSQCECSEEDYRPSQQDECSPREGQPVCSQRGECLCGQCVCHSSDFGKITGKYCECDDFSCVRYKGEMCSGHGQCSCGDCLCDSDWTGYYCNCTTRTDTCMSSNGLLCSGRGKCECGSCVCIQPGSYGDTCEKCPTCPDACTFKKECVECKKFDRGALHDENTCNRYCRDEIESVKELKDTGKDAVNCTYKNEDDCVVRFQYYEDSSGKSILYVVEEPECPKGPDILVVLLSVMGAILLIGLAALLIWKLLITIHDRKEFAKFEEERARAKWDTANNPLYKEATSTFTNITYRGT
Method: as §1
To more directly monitor changes in integrin conformation, a series of antibodies (mAbs) were used that react with ligand-bound or activated states of β3 integrins. These LIBS mAbs used here recognize epitopes at three different sites within the stalk region of the β3 subunit that are masked in the “off” state and only become accessible when the integrin is “opened up” in the ligand-binding, activated conformation (37). When K562 cells transfected to express αvβ3 integrin were incubated with the LIBS1 or LIBS6 mAbs alone (dotted histograms in FIG. 2), little antibody binding above isotype control mAb or secondary mAb alone was detected. D3 mAb appeared to induce some activation of the integrin since its binding to αvβ3 (FIG. 2, dotted line) was several fold above that of controls. GRGDSP (SEQ ID NO: 19) peptide augments LIBS binding by stabilizing active conformations of the β3 integrin. […] The effect of the clasp peptides on the binding of each LIBS mAb was determined in the presence of 1 mM RGD peptide, but in the absence of Mn^++.

[4] = biological target: wild-type human αvβ3 integrin on cells (human, UniProt P06756 31-1048; P05106 27-788); assay: cell-based or functional assay
Chain of wild-type human αvβ3 integrin on cells (P06756 31-1048, chain 1 of 2): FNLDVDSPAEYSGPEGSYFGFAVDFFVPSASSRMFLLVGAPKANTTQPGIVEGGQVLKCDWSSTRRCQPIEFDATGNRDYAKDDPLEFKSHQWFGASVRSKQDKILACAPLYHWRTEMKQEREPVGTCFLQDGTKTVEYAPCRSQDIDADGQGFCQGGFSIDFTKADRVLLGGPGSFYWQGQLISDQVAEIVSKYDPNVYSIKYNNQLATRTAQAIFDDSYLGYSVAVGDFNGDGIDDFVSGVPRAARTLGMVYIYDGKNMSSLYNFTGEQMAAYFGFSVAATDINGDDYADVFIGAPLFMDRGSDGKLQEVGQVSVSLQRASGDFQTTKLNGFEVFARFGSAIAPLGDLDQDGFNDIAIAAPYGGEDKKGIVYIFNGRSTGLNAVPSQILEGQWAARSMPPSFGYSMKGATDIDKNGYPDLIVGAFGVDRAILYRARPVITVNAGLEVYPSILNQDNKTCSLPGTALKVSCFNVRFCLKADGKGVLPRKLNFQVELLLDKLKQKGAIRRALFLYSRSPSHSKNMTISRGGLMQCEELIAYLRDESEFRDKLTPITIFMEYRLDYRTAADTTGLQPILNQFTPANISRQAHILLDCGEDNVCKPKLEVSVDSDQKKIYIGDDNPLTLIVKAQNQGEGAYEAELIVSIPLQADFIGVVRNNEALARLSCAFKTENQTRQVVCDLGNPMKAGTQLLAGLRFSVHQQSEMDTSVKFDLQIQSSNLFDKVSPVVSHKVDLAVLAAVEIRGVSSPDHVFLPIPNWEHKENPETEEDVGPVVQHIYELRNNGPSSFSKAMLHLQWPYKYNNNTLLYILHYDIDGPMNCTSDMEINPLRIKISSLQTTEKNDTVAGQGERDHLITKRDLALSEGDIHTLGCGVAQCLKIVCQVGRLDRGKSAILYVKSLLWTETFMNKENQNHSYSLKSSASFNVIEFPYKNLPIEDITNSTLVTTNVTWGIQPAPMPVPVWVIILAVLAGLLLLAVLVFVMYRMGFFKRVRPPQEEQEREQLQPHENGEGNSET
Chain of wild-type human αvβ3 integrin on cells (P05106 27-788, chain 2 of 2): as the sequence (P05106 27-788) above

[5] = 100 μM clasp peptide, 30 min at 37°
[6] = 100 μM clasp peptide in the presence of 100 μM RGD, metabolically inactive human platelets

Nc1ncnc2c1ncn2[C@@H]1O[C@H](COP(=O)(O)OP(=O)(O)O)[C@@H](O)[C@H]1O [ADP]
LIBS binding to platelets (3 LIBS mAbs) ([1]; 50 μM ADP): Neither of these agonists was able to increase LIBS binding

[Mn+2] [Mn^++]
C32 cell adhesion to Vn ([2]; 2 mM MnSO4): increased adhesion
C32 cell spreading ([2]; 2 mM MnSO4): enhanced spreading
increase in number of spread cells ([2]; 2 mM MnSO4): ca. 3 fold
LIBS antibody binding shift ([3]; 0.5 mM Mn++ added to 1 mM GRGDSP): further augmented
LIBS1 binding shift ([1]; 0.5 mM Mn++ added to 100 μM RGD, human platelets): further magnified

GRGDSP
C32 cell adhesion ([2]; 0.5 mM GRGDSP): effectively reduced cell adhesion; also recorded: nearly eliminated
C32 cell spreading ([2]; 0.5 mM GRGDSP): nearly eliminated
LIBS1, LIBS6 or D3 antibody binding (fluorescence) [3]: increase in fluorescence
LIBS1, LIBS6 or D3 antibody binding (fluorescence) ([3]; listed as RGD peptide): increase in D3 binding
LIBS1 binding to αIIbβ3 ([1]; 100 μM RGD, human platelets): sufficient to increase LIBS1 binding
LIBS6 binding to αIIbβ3 ([1]; 100 μM RGD, human platelets): not increased

KMDASAAVS (listed as Homo sapiens) [control peptide]
LIBS1 antibody binding [3]: did not enhance LIBS1 binding

KRFYVVMWKK (listed as Homo sapiens) [4N1K]
increase in number of spread cells ([2]; 50 μM 4N1K): ~10 fold
C32 cell adhesion increased ([2]; 50 μM 4N1K, 30 min at 37°, no additions set at 100%): 400%

TTRTDTC (listed as Homo sapiens) [P2483]
C32 cell adhesion [2, 5]: stimulated cell adhesion to an extent comparable to 4N1K
LIBS1 antibody binding [3]: dramatically increased
LIBS1 antibody binding ([3]; listed as 2483): greater than that promoted by RGD plus Mn^++
LIBS1 binding to αIIbβ3 [1, 6]: unable to increase LIBS1 binding
LIBS1 binding to αIIbβ3 ([1]; 100 μM clasp peptide in the presence of 100 μM RGD, metabolically inactive human platelets, listed as β3 clasp peptide): failed to increase LIBS1 binding
D3 LIBS antibody binding to platelets ([1]; human platelets): marginally stimulated D3 binding

YMESRADRK (listed as Homo sapiens) [P2484]
C32 cell adhesion [2, 5]: stimulated cell adhesion to an extent comparable to 4N1K
LIBS1 antibody binding [3]: dramatically increased
LIBS1 antibody binding ([3]; listed as 2484): greater than that promoted by RGD plus Mn^++
LIBS1 binding to αIIbβ3 [1, 6]: increased LIBS1 binding
LIBS1 binding to αIIbβ3 ([1]; 100 μM clasp peptide in the presence of 100 μM RGD, metabolically inactive human platelets, listed as αIIb clasp peptide): increased binding well above that with RGD alone
D3 LIBS antibody binding to platelets ([1]; human platelets): large rightward shifts

thrombin receptor activating peptide [TRAP]
LIBS binding to platelets (3 LIBS mAbs) ([1]; 10 μM TRAP): Neither of these agonists was able to increase LIBS binding

YMESRADRK [P2484 (αIIb integrin clasp peptide, residues 313-321, YMESRADRK)]
C32 cell spreading on vitronectin [4]: 78 fold

TTRTDTC [P2483 (β3 integrin clasp peptide, residues 561-567, TTRTDTC)]
C32 cell spreading on vitronectin [4]: 9 fold
